From US12329801B2, “Regenerative polypeptides and uses thereof” (JUVENA THERAPEUTICS, INC., priority 2021, dated 2025)

Test system: DM1 human myoblast
Assay: Myogenic gene expression fold change in DM1 human myoblast
Format: cell-based
Settings: 48 h; BMP7 50 ng/mL, Butyrate 100 nM, IGF2 200 ng/mL
Description: Myoblasts were cultured 48 h in the presence of factors (BMP7 50 ng/mL, Butyrate 100 nM, IGF2 200 ng/mL).
Myoblasts were cultured 96 h in the presence of factors (IGF2 200 ng/ml). […] Myoblasts were cultured 48 h in the presence of factors (IGF2 200 ng/mL).
IGF2 was tested individually for its ability to promote proliferation and/or fusion of human muscle progenitor cells from an individual with myotonic dystrophy type 1 (hMD)—a muscular dystrophy caused by mutations in the DMPK1 gene. The effect of IGF2 on myogenic activity was assayed in biological triplicate across a range of concentrations centered around expected physiological levels by adding each factor to hMD myoblasts for 72 hours with daily media changes (DMEM +2% horse serum) and a second pulse of factors at the first media change. After 72 or 96 hours, cells were pulsed for 2-5 hours with EdU (30 uM), ethanol fixed, stained with Hoescht 3342, immunostained for proliferation—as measured by the percent of cells staining positive for EdU (% EdU)-, and immunostained for differentiation—as measured by the increase in cellular area staining positive for embryonic myosin heavy chain (% eMyHC) relative to the negative controls, which received media and vehicle only. Wells were imaged on a Keyence BZ-100 at 4×, the images quantified in Cell Profiler, and the statistics were computed in R. Additionally, RNA was extracted from myoblast and select transcript abundances quantified by qPCR.

B1: BMP7: factor BMP7, 50 ng/mL, tested on DM1 human myoblast (protein, UniProt P18075 293-431, looked up)
Bone morphogenetic protein 7: STGSKQRSQNRSKTPKNQEALRMANVAENSSSDQRQACKKHELYVSFRDLGWQDWIIAPEGYAAYYCEGECAFPLNSYMNATNHAIVQTLVHFINPETVPKPCCAPTQLNAISVLYFDDSSNVILKKYRNMVVRACGCH
With B1 the “MYF5 expression fold change compared to FM (vehicle)” value was 0.709, the “MYOD1 expression fold change compared to FM (vehicle)” value was 0.709 and the “MYOG expression fold change compared to FM (vehicle)” value was 0.361.
